# ± gives the standard deviation of the averaged measurements.
# System: ATP
# Assay: switch fluorescence ratio, 500 uM ATP over buffer (Cy3 cluster intensity, sum of 5 cycles each) (fold (ratio)); higher = stronger signal-on switching upon ATP binding; sequences stand for … in TCGTCGGCAGCGTCAGATGTGTATAAGAGACAGTTTTTTTTTTTTTTTTTTTTTTTTT…TC
# Conditions: aptamer strand: ATP DNA aptamer (quencher-CACCTGGGGGAGTATTGCGGAGGAAGG + anchor), 100 nM annealed; ATP concentration: 500 uM
# Procedure, shortened: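 Switching-strand clusters labelled with Cy3 on a modified Illumina MiSeq flow-cell were annealed to 100 nM quencher-labelled ATP aptamer, imaged in selection buffer, and re-imaged after 15 min with 500 uM ATP at 22 °C. This was done over five cycles with NaOH stripping and re-annealing in between. The fluorescence ratio is summed target-cycle over summed buffer-cycle Cy3 intensity per cluster, averaged per switch-domain sequence, excluding clusters outside 100-1000 RFU.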
# 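Further: ATP exposure 15 min at 22 °C before imaging.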
row,Sequence,switch fluorescence ratio
1,GCTCTATCAC,1.04 ± 0.035
2,GCTCTATTAT,1.11 ± 0.16
3,GCTCTCGGTA,1.03 ± 0.039
4,GCTCTGAGTG,1.013 ± 0.0075
5,GCTCTGTCGG,1.02 ± 0.012
6,GCTCTTAGTT,0.992 ± 0.018
7,GCTCTTTGGG,1.06 ± 0.13
8,GCTGAGGGTG,1.01 ± 0.028
9,GCTGATATCC,1.01 ± 0.048
10,GCTGATGTTT,1.023 ± 0.0095
11,GCTGATTGGA,0.979 ± 0.055
12,GCTGCATGTA,1.02 ± 0.028
13,GCTGCGCCGT,1.004 ± 0.0092
14,GCTGCGGGGA,0.9929 ± 0.0071
15,GCTGCGGGTC,1.02 ± 0.033
16,GCTGCTAAGG,0.987 ± 0.056
17,GCTGCTATTG,0.994 ± 0.02
18,GCTGCTTTTT,1.01 ± 0.041
19,GCTGGCAGTG,0.972 ± 0.029
20,GCTGGGAAGG,0.978 ± 0.013
21,GCTGGGAGGG,0.979 ± 0.022
22,GCTGGGATAG,1.01 ± 0.019
23,GCTGGGCACT,1.01 ± 0.035
24,GCTGGGGGCA,1.05 ± 0.098
25,GCTGGGGGTT,0.996 ± 0.059

row,Sequence,switch fluorescence ratio
1,GCTGGGGTCG,0.9631 ± 0.0029
2,GCTGGGGTTA,0.996 ± 0.019
3,GCTGGGGTTG,0.9839 ± 0.003
4,GCTGGGTTTC,0.996 ± 0.02
5,GCTGGGTTTG,0.9866 ± 0.0088
6,GCTGGTAGGG,1.01 ± 0.026
7,GCTGGTGGGG,0.964 ± 0.05
8,GCTGGTGGGT,0.988 ± 0.012
9,GCTGGTTTAG,1.006 ± 0.0039
10,GCTGGTTTTG,0.9716 ± 0.004
11,GCTGTAAAGC,1.03 ± 0.092
12,GCTGTAAGTA,0.988 ± 0.017
13,GCTGTACGAT,1.16 ± 0.012
14,GCTGTAGTTT,0.973 ± 0.015
15,GCTGTATATT,0.993 ± 0.0017
16,GCTGTCATTC,1.01 ± 0.014
17,GCTGTCGGTG,0.972 ± 0.0079
18,GCTGTCGTTA,1.015 ± 0.01
19,GCTGTGGCT,0.972 ± 0.01
20,GCTGTGGTAC,1.188 ± 0.0086
21,GCTGTGTCCA,0.993 ± 0.01
22,GCTGTGTGGG,1.03 ± 0.032
23,GCTGTTAGAG,1.02 ± 0.022
24,GCTGTTAGCA,1.02 ± 0.034
25,GCTGTTCATG,0.993 ± 0.015

row,Sequence,switch fluorescence ratio
1,GCTGTTGAAT,1.02 ± 0.041
2,GCTGTTGGAA,0.985 ± 0.012
3,GCTGTTGTTC,0.979 ± 0.041
4,GCTGTTTACG,1.03 ± 0.031
5,GCTGTTTACT,1 ± 0.012
6,GCTGTTTCCC,0.989 ± 0.024
7,GCTTAATCAG,0.988 ± 0.022
8,GCTTAATTAG,1.02 ± 0.017
9,GCTTACTGTG,1.01 ± 0.037
10,GCTTAGGGTG,1.01 ± 0.015
11,GCTTAGTGGG,0.954 ± 0.013
12,GCTTATAATT,0.991 ± 0.013
13,GCTTATCCTG,0.982 ± 0.041
14,GCTTATCGGT,0.996 ± 0.018
15,GCTTCAGAAA,1 ± 0.066
16,GCTTCAGGG,1 ± 0.019
17,GCTTCCCAGC,1.19 ± 0.032
18,GCTTCGGGCC,0.991 ± 0.015
19,GCTTCTATGC,1.02 ± 0.037
20,GCTTGAAGGG,1.01 ± 0.027
21,GCTTGAAGTT,0.991 ± 0.068
22,GCTTGAATTT,0.984 ± 0.02
23,GCTTGAGTAC,0.992 ± 0.037
24,GCTTGATACG,1.06 ± 0.099
25,GCTTGCATGC,1.04 ± 0.022

row,Sequence,switch fluorescence ratio
1,GCTTGCGGGG,0.9774 ± 0.0015
2,GCTTGGAGAG,0.99 ± 0.013
3,GCTTGGCAGT,1.03 ± 0.018
4,GCTTGGCTCG,1.01 ± 0.027
5,GCTTGGCTTG,1.02 ± 0.025
6,GCTTGGTGCA,0.997 ± 0.031
7,GCTTGGTGTC,1.05 ± 0.014
8,GCTTGTACGG,1.01 ± 0.039
9,GCTTGTTTGA,1.01 ± 0.014
10,GCTTTACCAG,0.989 ± 0.013
11,GCTTTAGTGG,0.963 ± 0.012
12,GCTTTCAGGG,1.01 ± 0.025
13,GCTTTGGGAA,1.03 ± 0.04
14,GCTTTTGCAC,1.028 ± 0.0078
15,GCTTTTGGCG,1.02 ± 0.021
16,GCTTTTGGTA,1.002 ± 0.0095
17,GCTTTTGTGG,0.986 ± 0.035
18,GCTTTTTGGC,1.03 ± 0.063
19,GCTTTTTTGG,0.994 ± 0.025
20,GGAAAAACGT,0.998 ± 0.015
21,GGAAAAAGGA,0.9423 ± 0.0081
22,GGAAAAAGGT,1.05 ± 0.14
23,GGAAAATTTA,0.963 ± 0.059
24,GGAAACGGGT,1.02 ± 0.014
25,GGAAACTCGG,0.986 ± 0.029

# — the supplement of paper PMC10126150
